Test results as given in patent US20100120171A1.

How the values were obtained:
[1] = biological target: recombinant fragment of human VE-cadherin extracellular region, CAD 1-4 fragment (Asp48-Glu478, preceded by Met), SEQ ID NO: 4 (human) (UniProt P33151); experiment: sandwich ELISA, BV9 capture, rabbit polyclonal detection; CAD1-4 at 10 ng/mL; first replicate
[2] = biological target: recombinant fragment of human VE-cadherin extracellular region, CAD 1-4 fragment (Asp48-Glu478, preceded by Met), SEQ ID NO: 4 (human) (UniProt P33151); experiment: sandwich ELISA, BV9 capture, rabbit polyclonal detection; CAD1-4 at 10 ng/mL; mean OD minus OD at 0 ng/mL
[3] = biological target: recombinant fragment of human VE-cadherin extracellular region, CAD 1-4 fragment (Asp48-Glu478, preceded by Met), SEQ ID NO: 4 (human) (UniProt P33151); experiment: sandwich ELISA, BV9 capture, rabbit polyclonal detection; CAD1-4 at 0.63 ng/mL
[4] = biological target: recombinant fragment of human VE-cadherin extracellular region, CAD 1-4 fragment (Asp48-Glu478, preceded by Met), SEQ ID NO: 4 (human) (UniProt P33151); experiment: sandwich ELISA, BV9 capture, rabbit polyclonal detection; CAD1-4 at 0.63 ng/mL; second replicate
[5] = biological target: recombinant fragment of human VE-cadherin extracellular region, CAD 1-4 fragment (Asp48-Glu478, preceded by Met), SEQ ID NO: 4 (human) (UniProt P33151); experiment: sandwich ELISA, BV9 capture, rabbit polyclonal detection; CAD1-4 at 5 ng/mL; first replicate
[6] = biological target: recombinant fragment of human VE-cadherin extracellular region, CAD 1-4 fragment (Asp48-Glu478, preceded by Met), SEQ ID NO: 4 (human) (UniProt P33151); experiment: sandwich ELISA, BV9 capture, rabbit polyclonal detection; CAD1-4 at 5 ng/mL
[7] = biological target: recombinant fragment of human VE-cadherin extracellular region, CAD 1-4 fragment (Asp48-Glu478, preceded by Met), SEQ ID NO: 4 (human) (UniProt P33151); experiment: as above; remark: listed apart in the source
[8] = biological target: recombinant fragment of human VE-cadherin extracellular region, CAD 1-4 fragment (Asp48-Glu478, preceded by Met), SEQ ID NO: 4 (human) (UniProt P33151); experiment: sandwich ELISA, BV9 capture, rabbit polyclonal detection; CAD1-4 at 2.5 ng/mL
[9] = biological target: recombinant fragment of human VE-cadherin extracellular region, CAD 1-4 fragment (Asp48-Glu478, preceded by Met), SEQ ID NO: 4 (human) (UniProt P33151); experiment: SDS-PAGE and western blot of the purified fragment with BV9
[10] = biological target: recombinant fragment of human VE-cadherin extracellular region, CAD 1-4 fragment (Asp48-Glu478, preceded by Met), SEQ ID NO: 4 (human) (UniProt P33151); experiment: sandwich ELISA, BV9 capture, rabbit polyclonal detection; CAD1-4 at 5 ng/mL; second replicate
[11] = biological target: recombinant fragment of human VE-cadherin extracellular region, CAD 1-4 fragment (Asp48-Glu478, preceded by Met), SEQ ID NO: 4 (human) (UniProt P33151); experiment: sandwich ELISA, BV9 capture, rabbit polyclonal detection; CAD1-4 at 1.25 ng/mL; second replicate
[12] = biological target: recombinant fragment of human VE-cadherin extracellular region, CAD 1-4 fragment (Asp48-Glu478, preceded by Met), SEQ ID NO: 4 (human) (UniProt P33151); experiment: sandwich ELISA, BV9 capture, rabbit polyclonal detection; CAD1-4 at 2.5 ng/mL; mean OD minus OD at 0 ng/mL
[13] = biological target: recombinant fragment of human VE-cadherin extracellular region, CAD 1-4 fragment (Asp48-Glu478, preceded by Met), SEQ ID NO: 4 (human) (UniProt P33151); experiment: sandwich ELISA, BV9 capture, rabbit polyclonal detection; CAD1-4 at 2.5 ng/mL; first replicate

Chain of UniProt P33151 (P33151 other isoform, or with tags, fused parts or gaps limits assumed): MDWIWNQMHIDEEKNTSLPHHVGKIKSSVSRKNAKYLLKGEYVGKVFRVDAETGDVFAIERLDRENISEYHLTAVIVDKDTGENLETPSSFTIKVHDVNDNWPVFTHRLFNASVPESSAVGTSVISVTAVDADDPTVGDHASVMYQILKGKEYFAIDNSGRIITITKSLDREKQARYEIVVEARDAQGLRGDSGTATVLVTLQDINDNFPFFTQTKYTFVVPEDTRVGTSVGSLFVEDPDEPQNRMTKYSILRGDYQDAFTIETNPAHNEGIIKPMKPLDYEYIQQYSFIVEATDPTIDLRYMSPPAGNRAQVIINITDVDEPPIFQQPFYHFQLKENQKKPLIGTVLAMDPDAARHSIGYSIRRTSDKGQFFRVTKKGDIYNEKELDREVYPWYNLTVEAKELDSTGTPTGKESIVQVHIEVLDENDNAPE

OD [1]: 1.9 OD | Corr. OD [2]: 1.06 OD | mean OD [3]: 0.937 OD | OD [4]: 0.899 OD | OD [5]: 1.34 OD | mean OD [6]: 1.4 OD | OD1 [7]: 1.31 OD | OD2 [7]: 1.21 OD | mean OD [7]: 1.26 OD | OD1 [8]: 0.988 OD | OD2 [8]: 0.985 OD | mean OD [8]: 0.987 OD | lowest detectable quantity [9]: 1 ng | OD [10]: 1.45 OD | OD [11]: 0.932 OD | Corr. OD [12]: 0.288 OD | OD [13]: 1.26 OD
Substance: anti-VEcadherin mouse mAb, clone BV9 (Abcam, product datasheet ab7047) (antibody)
